Source: patent publication US20220026415A1, “A METHOD FOR SCREENING A THERAPEUTIC AGENT FOR CANCER USING BINDING INHIBITOR OF CYCLIN-DEPENDENT KINASE 1 (CDK1)-CYCLIN B1 AND RETINOIC ACID RECEPTOR RESPONDER 1 (RARRES1) GENE KNOCKOUT ANIMAL MODEL” (NATIONAL CANCER CENTER, priority 2018, published 2022)

Test system: HEK293 cells
Assay: Cell cycle distribution after release from double thymidine block, flow cytometry
Format: cell-based
Procedure: In the case of a double thymidine block (DTB) synchronized at the G1/S boundary, HEK293 cells were incubated with 2 mM thymidine for 16 hours and maintained in a normal medium for 10 hours, and then 2 mM thymidine was further added thereto for 16 hours.
For analysis of cell cycles or sub-G1 DNA contents, cells were immobilized with 80% ice-cold ethanol, and stored at 4° C. The cells were stained with PBS containing 50 ug/ml of propidium iodide (PI) and 100 ug/ml of RNase A at 37° C. for 30 minutes. DNA content was analyzed by FACS Calibur flow cytometry and the results thereof were analyzed using Cellquest software (Becton-Dickinson Immunocytometry Systems, San Diego, Calif.) and Modfit LT 3.3 software. At least 10,000 cells were analyzed per sample.
To evaluate whether the reduced cell growth observed in RARRES1-overexpressing cells was due to altered cell cycle progression, HEK293 cells were transfected with green fluorescent protein (GFP) tagged-RARRES1 or -empty vector (Ctrl) according to the method of Example 1-1, and the cells were observed by live cell imaging according to Example 1-6. From now on, all data shown was regarded as isoform 1 since there was no difference between the two isoforms of RARRES1 in the above experiments, and it was named ‘RARRES1.’ In HEK293 cells transfected with a GFP control (Ctrl) according to the method of Example 1-1, the cells underwent normal cell cycle progression. A cell entered into mitosis (round shape) within 1 hour, and was separated into two daughter cells within at least 2.5 hours (see FIG. 5A, top panel). […] To confirm mitotic arrest induced by RARRES1 overexpression, GFP-control or GFP-RARRES1-overexpressing 293 cells and 293 cells transfected with a red fluorescent protein (RFP) lentivirus used to label GFP non-transfected cell, according to Example 1-3 were co-cultured, and changes in the number of fluorescence-expressing cells (see FIG. 5B) were monitored. […] Under co-culture conditions of GFP-control coupled with RFP virus-transfected cells, the numbers of both fluorescence-expressing cells were increased over time. […]

B1: RARRES1: RARRES1 isoform 1 overexpressed in HEK293 cells by transfection with an expression vector (protein)
chain: MQPRRQRLPAPWSGPRGPRPTAPLLALLLLLAPVAAPAGSGDPDDPGQPQDAGVPRRLLQQAARAALHFFNFRSGSPSALRVLAEVQEGRAWINPKEGCKVHVVFSTERYNPESLLQEGEGRLGKCSARVFFKNQKPRPTINVTCTRLIEKKKRQQEDYLLYKQMKQLKNPLEIVSIPDNHGHIDPSLRLIWDLAFLGSSYVMWEMTTQVSHYYLAQLTSVRQWKTNDDTIDFDYTVLLHELSTQEIIPCRIHLVWYPGKPLKVKYHCQELQTPEEASGTEEGSAVVPTELSNF
**Q.** For B1, which “cells in the G2/M phases” value (4 hours after release from DTB, control 21.38%) is on record?
**A.** Its value is 29.85%.

**Q.** And the “cells in the G2/M phases” value (6 hours after release from DTB, control 77.41%)?
**A.** Its value is 80.91%.

**Q.** What about the “cells in the G2/M phases” value (8 hours after release from DTB, control 45.47%) of the same molecule?
**A.** Its value is 54.46%.
